First the molecules themselves.
B1: UNC119B, full-length, C-terminal His6 (natural protein)
chain: not shown
B2: FMNL1 peptide Myr-GNAAGSAEQPAGK-FAM (peptide)
peptide: Myristoyl-GNAAGSAEQPAGK(FAM)

Holding throughout (assay): fluorescence polarisation
For orientation: Polarisation of emitted light reports the rotation of a fluorescent probe.

Test [1] has as its target B1.
Test [2] deals with UNC119A, full-length, C-terminal His6 (human, UniProt Q13432 1-240).
Test [3] addresses B2.

No end group written: not given here. *: point of attachment. Myristoyl = CCCCCCCCCCCCCC(=O)*

On to Myristoyl-GCTVSAEDK(FAM) [GNAI2 peptide Myr-GCTVSAEDK-FAM], for which the binding result in test [1] and in test [2] was “binds” in each case. Regarding B1, the “fold lower affinity than to UNC119A” value in test [3] is 9.5 fold.

On to Myristoyl-GAGASAEEKHSRK(FAM) [GNAT1 peptide Myr-GAGASAEEKHSRK-FAM], for which the binding result in test [1] and in test [2] was “binds” each time. Regarding Myristoyl-GNAAAAKKGK(FAM) [PKA peptide Myr-GNAAAAKKGK-FAM], the binding result in test [1] and in test [2] was “binds” throughout. GCGCSSHPEDK (not fully specified; N-terminal myristoyl on Gly; FAM on the C-terminal Lys) [LCK peptide Myr-GCGCSSHPEDK-FAM] had a Kd in test [1] of 0.37 nM. In the case of Myristoyl-GAAASRRRAK(FAM) [NSMF peptide Myr-GAAASRRRAK-FAM], the binding result in test [1] and in test [2] was “binds” each time. With Myristoyl-GGAVSAGEDNDDK(FAM) [PCMTD1 peptide Myr-GGAVSAGEDNDDK-FAM], the results for the equilibrium dissociation constant (Kd) in test [1] and in test [2] were 72.6 nM and 5.25 nM, respectively.

For the molecule B2, the binding result in test [1] and in test [2] was “binds” each time.

As to Myristoyl-GTASSLVSPAGGK(FAM) [NPHP3 peptide Myr-GTASSLVSPAGGK-FAM], the equilibrium dissociation constant (Kd) in test [1] is 0.17 nM; in test [2] it was 0.84 nM.

As usually defined, the Kd is the concentration at which binding is half-saturated. A lower Kd goes with tighter binding.

These data come from publication PMC8246649 (Biochemistry, 2021).
